In article PMC8556260:

Legend:
[1] = target: PIR91 ribosome-bound nascent chain (full-length PIR RNC, wild type) (UniProt O88900); test: cross-linking; titration of resuspended PIR91 RNCs with TF (up to 40 µM), 10 min on ice, then EDC 80 mM, 30 min, 30 °C; standard resuspension buffer, 10 mM Mg(OAc)2, pH 7.0; fraction cross-linked fitted to a two-state model; apparent
[2] = target: PIR91 ribosome-bound nascent chain (full-length PIR RNC, wild type) (UniProt O88900); test: cross-linking; titration of resuspended PIR91 RNCs with DnaK/DnaJ/GrpE (5:1:2, up to 50/10/25 µM), ADP, 50 mM KCl, 5 mM Mg2+, then EDC 80 mM, 30 min, 30 °C; fraction cross-linked to DnaK fitted to a two-state model; apparent

Substance | Kd [1] [µM] | Kd [2] [µM]
Trigger factor (TF), purified wild type (from UniProt P0A850 1-432) (natural protein) | 3.8 | –
E. coli Hsp70 (DnaK), purified, ADP-bound, added as K/J/E mixture (from UniProt P0A6Y8 1-638) (natural protein) | – | 109
